From patent publication US20250281533A1 (LG CHEM, published 2025)

T1: Human MUC1 protein (human, UniProt P15941 1041-1153, limits assumed)
T1 construct: also called mucin1 antigen; human mucin1
T1 sequence: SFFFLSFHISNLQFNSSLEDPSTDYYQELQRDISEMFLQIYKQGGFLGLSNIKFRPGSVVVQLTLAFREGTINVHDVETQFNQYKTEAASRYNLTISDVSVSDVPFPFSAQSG

T2: C subunit of human MUC1 expressed in HEK293T cells (HEK293T-v1) (human, UniProt P15941 1098-1255, limits assumed)
T2 construct: domain: C subunit of MUC1; also called MUC1-C
T2 sequence (looked up): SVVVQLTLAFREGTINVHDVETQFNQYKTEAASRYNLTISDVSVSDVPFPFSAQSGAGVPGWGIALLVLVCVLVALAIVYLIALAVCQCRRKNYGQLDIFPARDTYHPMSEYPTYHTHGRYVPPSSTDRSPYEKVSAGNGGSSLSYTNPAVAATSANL


Columns and labels:
Human MUC1 protein = target: T1, Human MUC1 protein; assay: SPR, Biacore T200; scFv-Fc on anti-human IgG (Fc) CM5 chip, human MUC1 protein injected at 25-400 nM
Procedure: Affinity of scFv-Fc antibody including the scFv for mucin1 antigen was measured using Biacore T200 (GE healthcare). Anti-human IgG (Fc) antibody (GE healthcare, Cat. No. BR-1008-39, final concentration of 25 ug/mL) was applied at a rate of 5 uL/min for 360 seconds on a Series S Sensor Chip CM5 (GE healthcare, Cat. No. BR-1005-30) using an Amine Coupling Kit (GE healthcare, Cat. No. BR-1000-50) and immobilized at about 5000-7000 RU.

[1] = target: T2, C subunit of human MUC1 expressed in …; assay: flow cytometry (PE MFI, corrected to G03 at 380 ug/mL) on HEK293T-v1 cells expressing MUC1 C subunit
Procedure: (§1) The soluble scFv prepared in Example 1 was diluted 5-fold to prepare a total of 8 serial dilutions. Each serial dilution was 380 μg/mL, 76 μg/mL, 15.2 μg/mL, 3.04 μg/mL, 0.608 μg/mL, 0.1216 μg/mL, 0.02432 μg/mL, 0.004864 μg/mL. A buffer used in soluble scFv dilution and cell washing was PBS containing 2% FBS and 10 mM EDTA. Four kinds of cells were prepared at a density of 1×10⁶/mL, respectively, and put in a 96 well U-bottom cell culture plate at a density of 1×10⁵/100 μl/well, followed by centrifugation at 1500 RPM for 5 minutes. The soluble scFv prepared previously was treated in an amount of 50 μl/well. The cells were left at 4° C. for 1 hour. 150 μl/well of the cell washing buffer was added thereto and then mixed, followed by centrifugation at 1500 RPM for 5 minutes. The supernatant was discarded, and 200 μl/well of the cell washing buffer was added thereto and then mixed, followed by centrifugation at 1500 RPM for 5 minutes. A goat anti-human IgG Fc-biotin antibody (Invitrogen, A18821) was diluted 500-fold, and 50 μl/well thereof was treated. The cells were left at 4° C. for 20 minutes. 150 μl/well of the cell washing buffer was added thereto and then mixed, followed by centrifugation at 1500 RPM for 5 minutes. The supernatant was discarded, and 200 μl/well of the cell washing buffer was added thereto and then mixed, followed by centrifugation at 1500 RPM for 5 minutes. PE-Streptavidin (BD Pharmigen, 554061) was diluted 1000-fold, and 50 μl/well thereof was treated. The cells were left at 4° C. for 20 minutes. 150 μl/well of the cell washing buffer was added thereto and then mixed, followed by centrifugation at 1500 RPM for 5 minutes. The supernatant was discarded, and 200 μl/well of the cell washing buffer was added thereto and then mixed, followed by centrifugation at 1500 RPM for 5 minutes. 80 μl/well of the cell washing buffer was added and mixed, followed by flow cytometry.
The affinity of the soluble scFv to the mucin1-expressing cells was confirmed by PE MFI values from the results of the flow cytometry. Each cell line without soluble scFv was stained with another fluorescent antibody (Goat anti-human IgG Fc-biotin antibody, PE-Streptavidin), which was used as a negative control value, and each cell line was treated with G03 at a concentration of 380 μg/mL, which was used as a positive control value, and MFI value was corrected as follows: […]

[2] = target: T2, C subunit of human MUC1 expressed in …; assay: flow cytometry (PE MFI, corrected to G03 at 380 ug/mL) on HEK293T-v1 cells expressing MUC1 C subunit; 293T-v1 cells
Procedure: as §1, with “PE-Streptavidin (BD Pharmigen, 554061) was diluted 1000-fold, and 50 μl/well thereof was treated. The cells were left at 4° C. for 20 minutes. 150 μl/well of the cell washing buffer was added thereto and then mixed, followed by centrifugation at 1500 RPM for 5 minutes. The supernatant was discarded, and 200 μl/well of the cell washing buffer was added thereto and then mixed, followed by centrifugation at 1500 RPM for 5 minutes. 80 μl/well of the cell washing buffer was added and mixed, followed by flow cytometry.” left out

Binder | EC50 [1] [µg/mL] | further results
scFv-Fc antibody including the positive control scFv G03 (Fc fusion, not shown: Fc part (with any hinge or linker) of the scFv-Fc) scFv: EVQLVQSGAEVKKPGATVKISCKVSGYTFTSYWMHWVQQAPGKGLEWIGYINPGTGYIEYNQKFKDRVTITADKSTDTAYMELSSLRSEDTAVYYCASSTAPFDYWGQGTLVTVSSGGGGSGGGGSGGGASEIVLTQSPGTLSLSPGERATLSCKASQDIKSYLSWYQQKPGQAPRLLIYYATRLADGIPDRFSGSGSGTDFTLTISRLEPEDFAVYYCLQYDESPYTFGQGTKLEIK | – | Kd (Human MUC1 protein): 27.6 nM
positive control scFv G03 (scFv) scFv: EVQLVQSGAEVKKPGATVKISCKVSGYTFTSYWMHWVQQAPGKGLEWIGYINPGTGYIEYNQKFKDRVTITADKSTDTAYMELSSLRSEDTAVYYCASSTAPFDYWGQGTLVTVSSGGGGSGGGGSGGGASEIVLTQSPGTLSLSPGERATLSCKASQDIKSYLSWYQQKPGQAPRLLIYYATRLADGIPDRFSGSGSGTDFTLTISRLEPEDFAVYYCLQYDESPYTFGQGTKLEIK | 3.46 | –
scFv 2447_3A12 (scFv, also called #6) scFv: EVQLVQSGAEVKKPGASVKVSCKASGYTFTSYGISWVRQAPGQGLEWMGWISAYNGNTNYAQKLRGRVTMTTDTSTSTAYMELRSLRSDDTAVYYCARDPHILTGYYRGGWFDPWGQGTLVTVSSGGGGSGGGGSGGGASSYELTQDPAVSVVLGQTVRITCQGDSLRSYYASWYQQKPGQAPVLVIYGKNNRPSGIPDRFSGSSSGNTASLTITGAQAEDEADYYCNSRDSSGNHRVFGGGTKLTVL | 1.47 | –
scFv 2447_3H02 (scFv, also called #9) scFv: EVQLLESGGGLVQPGRSLRLSCAASGFTFDDYAMHWVRQAPGKGLEWVSGISWDSGSIGYADSVKGRFTISRDNAKNSLYLQMNSLRAEDTALYYCAKDVSSGWYWYAFDIWGQGTLVTVSSGGGGSGGGGSGGGASSYELTQDPAVSVALGQTVRITCQGDILRSYYASWYQQKPGQAPVLVIYGKNNRPSGIPDRFSGSSSGNTASLTITGAQAEDEADYYCNSRDSSGNRVVFGGGTKLTVL | 1.41 | –
scFv 2447_3A01 (scFv) scFv: EVQLLESGGGLVQPGGSLRLSCAASGFTFDDYAMHWVRQAPGKGLEWVSGISWNSGSIVYADFVKGRFTISRDNAKNSLYLQMNSLRAEDTALYYCAKDISSGWYPGTFDYWGQGTLVTVSSGGGGSGGGGSGGGASSYELTQDPAVSVALGQTVRITCQGDSLRSYYASWYQQKPGQAPVLVIYGKNNRPSGIPDRFSGSSSGNTASLTVTGAQAEDEADYYCSSRDSSDDVVFGGGTQLTVL | 4.78 | –
scFv 2447_2H08 (scFv) scFv: EVQLVQSGAEVKKPGASVKVSCKASGYTFTNYGISWVRQAPGQGLEWMGWISAYNGNTNYAQKLQGRVTMTTDTSTSTAYMELRSLRSDDTAVYYCARDPHILTGYYRGGWFDPWGQGTTVTVSSGGGGSGGGGSGGGASSYELTQDPAVSVALGQTVTITCQGDSLRTSYAGWLQQKPGQAPVLVLYGKTSRPSGIPDRFSGSTSGNTASLTITGAQAEDEAEYFCHSRDSNDNYLEVVFGGGTKLTVL | 21.7 | –
scFv 2447_3B07 (scFv) scFv: QVQLVESGGVVVQPGGSLRLSCAASGFTFDDYAMHWVRQAPGRGLEWVSLTSWDGGSTYYADSVKGRFTISRDNSKNSLYLQMNSLRAEDTALYYCAKDHSSGWYNGGMDVWGQGTMVTVSSGGGGSGGGGSGGGASSYELTQDPAVSVALGQTVRITCQGDSLRSYYASWYQQKPGQAPVLVIYGKNNRPSGIPDRFSGSSSGNTASLTITGAQAEDEADYYCNSRDSSGNHVVFGGGTKLTVL | 3.86 | –
scFv 2447_3A08 (scFv) scFv: EVQLVQSGAEVKKPGASVKVSCKASGYTFTSYGISWVRQAPGQGLEWMGWISAYNGNTNYAQKLQGRVTMTTDTSTSTAYMELRSLRSDDTAVYYCARDRATIFGVVTPFDYWGQGTLVTVSSGGGGSGGGGSGGGASSYELTQDPAVSVALGQTVRITCQGDSIRSYSASWYQQKPGQAPRLVIYGKNNRPSGIPDRVSGSTSGNTASLTVTGAQAEDEADYYCNSRDSSGNRVVFGGGTQLTVL | 1.73 | –
scFv 2447_3A09 (scFv, also called #5) scFv: EVQLLESGGGLVQPGRSLRLSCAATGFTFDDYAMHWVRQAPGKGLEWVSGISWNSGSIGYADSVKGRFTISRDNAKNSLYLQMNSLRAEDTASYYCAKDVSSGWYWYAFDIWGQGTLVTVSSGGGGSGGGGSGGGASSYELTQDPAVSVALGQTVRITCQGDSLRSYYASWYQQKPGQAPVLVIYGKNNRPSGIPGRFSGSSSGNTASLTVTGAQAEDEADYYCNSRDSGGSVVFGGGTKLTVL | 1.96 | –
scFv 2445_1F09 (scFv) scFv: EVQLLETGGGLIQPGGSLRLSCAASGFTVSSNYMSWVRQAPGKGLEWVSVIYSGGSTYYADSVKGRFTISRDNSKNTLYLQMNSLRAEDTAVYYCARDRGWNHGMDVWGQGTLVTVSSGGGGSGGGGSGGGASQSGLTQPPSASGTPGQRVTISCSGGSSEVGSRYVSWYQQLPGTAPRLLIYKNDRRPSGVPDRFSGSKSGSSASLAISGLRSEDEADYYCAAWDDSLNGYVFGTGTKLTVL | – | EC50 [2]: > 380 µg/mL
scFv-Fc antibody including the scFv 2447_3H08 (Fc fusion, scFv-Fc format as used in the Biacore assay; not shown: Fc part (and any hinge or linker) of the scFv-Fc) scFv: EVQLLESGGGLVQPGRSLRLSCAASGFTFDDYAMHWVRQAPGKGLEWVSGISWNSGSIDYADSVKGRFTISRDNSKNTLYLQMNSLRAEDTAVYYCARDRSSGWYTGSFDYWGQGTLVTVSSGGGGSGGGGSGGGASSYELTQDPAVSVALGQTVRITCQGDSLRSYYASWYRQKPGQAPVLVIYGKNNRPSGIPDRFSGSSSGNTASLTIIGAQAEDEADYYCQSRDSSDNRVLFGGGTKVTVL | – | Kd (Human MUC1 protein): 39.9 nM
scFv 2447_3H08 (scFv, also called #10) scFv: EVQLLESGGGLVQPGRSLRLSCAASGFTFDDYAMHWVRQAPGKGLEWVSGISWNSGSIDYADSVKGRFTISRDNSKNTLYLQMNSLRAEDTAVYYCARDRSSGWYTGSFDYWGQGTLVTVSSGGGGSGGGGSGGGASSYELTQDPAVSVALGQTVRITCQGDSLRSYYASWYRQKPGQAPVLVIYGKNNRPSGIPDRFSGSSSGNTASLTIIGAQAEDEADYYCQSRDSSDNRVLFGGGTKVTVL | 2.57 | –
scFv 2447_3C08 (scFv) scFv: EVQLLESGGGLVQPGGSLRLSCAASGFTFDDYAMHWVRQAPGKGLEWVSGISWNSGSIGYADSVKGRFTISRDNAKNSLYLQMNSLRAEDTALYYCAKDRGSGYEGNYYGMDVWGQGTLVTVSSGGGGSGGGGSGGGASSYELTQDPAVSVALGQTVRITCQGDSLRSYYASWYQQKPGQAPVLVIYGKNNRPSGIPDRFSGTTSGNTASLTITGAQAEDEADYYCNSRDSSGNHYVFGTGTKVTVL | 1.38 | –
